Data: the domain aggregation screens of Martell et al. (2025)

Assay: soluble fraction after stress (log2 fold change); higher = more stays soluble; pooled small domains, quantitative proteomics
Conditions: stress: 75 degC
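Also: 20 min heating vs room temperature control held 20 min.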

Sequence | soluble fraction (log2)
HMQVSDVTELRTILEKVITENESVATEFKEGKDAAMNFLVGQGMKATRGAADPALLKEIITGIL | -0.0525
HMQVSITGYLGGEKIGLFDDAKFKALAAKQGIAIDYRKAGSPAMMDADRKGMDYLFPSSRAAVEYGNAKGV | -0.00209
HMQVTDTGTIEGEIDKVLAANPDRVTEYHDGKEKILGWFVGQVMQTTKGKANPQMVNQLFLEKLK | 0.0105
HMQVTPQVLRLLDVLGDKELSLRQIAEALGLSDRKNIMRNYVVPALDSGRVVRTVPNKPNSRFQKYRK | -0.739
HMQYDALVLNLLQEKNLTSESLKDAQRAFAKSHNLSTLPSKSQILQAYFQLLEQGKIEKNPDFELLL | -0.394
HMQYFDIETEIQKFIKSENNLSDFDKETLQSFLYQLSKGSPEENTAKKVVDILNKFLPLTTAIINMIKALT | 0.0503
HMQYYITKIANYDQVSPNLLVRTAEGQYMVKTNADILDTDVTKLTEEEIRKDWGYLFENGFSELV | -0.498
HMRAAEPTTDAQRDRRRRIVLTAMTMLQERGYDEIQMRDVAQQAGVALGTLYRYFPSKEQLFAHVLVE | -1.71
HMRAAFEHLTIGQTVSGLVKSQARGVSLVEIEGQTVAMRLPQPVAVGDTLRLRFAGHMPQPVFLLDT | -1.59
HMRADYVGGLDPAGDNFLALRTGPGSGYAMILPMGPGTFVTVLRRNGKWLLVELEDGTRGWAYGSYILG | -2.32
HMRAGALTTLTERERNVFDLVVTGHSNPEIARQLSIADVTVKTHVGHILSKLGVRDRVHLVIWAHRQGLAD | -2.84
HMRAMWENLFFQYKEGFLPEEYYKQGIATGIRLAGPKFVEMNIPMQKEFEDEVHRLLAEHEKSVK | -0.914
HMRASVTYVVQVNGKLRGKLEVAPDIDPEELKKLALEVENVKHSLQGWTVKKVIVIPGKMVSIAAGK | -1.78
HMRAVEGKRLKRLLRTNLIAIERDQILQYPLRKRPLAIVTRAVRATNPDAVIVNDAGDDVFARALDVLLAS | -1.44
HMRDAKSQLQEALQKSGRLPEYELVSVEGPPHAPVFTYRVRIDGAVVGEGQGASKQAAQQAAAQSALKSG | 0.0311
HMRDDAIQQGREIVERELHRLDLAYTTLTDVLAKLEYEKLDDLYAAVGFGIRSPHSVAAAALQVERDKA | -0.322
HMRDGHEQLQGVLSAIKFHQANFLIGVLDDGTTVKGNMLSPQVGLEYTFRGRRERHPRWGEQFAFMDYRV | -3.31
HMRDIGKNIRYYREKKGYSQEQLAQLLFVTRQTVSNYETSRSRPDVETLVKLAGLLDIDVTDLIYGPR | -2.74
HMRDKSITFSEFVKLLDEGQIQKVTLTGNEILGTQKSGDKFRTYAPPQYEGLGNKLVERSVEVTAKE | 0.378
HMRDLVTYVVQVNGKLRGKLEVSPSTDDNSLKTMALELENVQRALEGLSVKKVIVIPGKMVSIAAG | -0.972
HMRDVVVVPDLSGLTQMEALSKLDAESLNIGEINYGVSEMPEGVIFKQDPVYGTELMKGDTVDIFISGR | -0.423
HMRDYKTHLQEVLQSKGEVNIWYKLIDEKGPDHNKKFVMQVGIDSKILGFGEGKSKKEAEQVAARKALDNI | -0.384
HMREGIQLGDPVRVIRDPLFGKIGAVSGLPSELRAIPTESEVRVLEVRFPDGTTTVVPRANIEVIEG | 0.487
HMREIEVNYAAGDSVRVIDGPLAGFIGVVSSVEPDKNKVNVTVSMFGRETPVELELDQVETLD | 0.111
HMREISSDELHSLFSADQRGDLVINETTRLSIEKLYALHTPEEREAKVNELSGVLPSEAHRQLVHFLDYFD | -1.42
HMREITVEELYELEGIRIVGTIPGISAWVAESGRQMVFLVGQKVKGHDLLEVGESRVVLRKGDSVVNVLL | -1.56

Sequence | soluble fraction (log2)
HMREKPRETFQRIAEKVGQTLRKGPVRVQQMDLLFSESREQVMEVLRAMAESGEIRIQDDTLHWNGHT | 0.173
HMRELPKRPEIRYAAGDRVFHKAFGNGLVKQVAQTAGGARVTVDFGEGKGVKTFAGDAPMIKI | 0.391
HMRELSDFEKLLFTTTLERKMINLAMLLTRSNKADSKDLIQDSYLKAIENQVQFNGNNIDAWVITILKNTF | -0.352
HMRENAARNRNVNLDIGETLRVDAWSPERRARVQYRGAAWDVELAPNAPATVGEFRIVEVRGNVLVVTP | -0.604
HMREPIPVPSRPIRAGDLVEIPGTNRPAEVTAVKGDRLVLKAGVLSMTVKNDEVRLIEDDERAAM | 0.505
HMREQAHEVAGKLGYPVMVKASAGGGGKGIRIVRTEDELDQAFEAAQSETKAAFGDDQMYMEKVI | -0.0878
HMRESDQSTVELSLERTIQEALMVNPRTSSVEEFSFEWGTGRVKVSFIVYSVDGEPFTVDSIIE | -2.45
HMREVEAPRDLLAALGERPGALDAWKALSFTHQREYVEAIEDARKPETRERRIANAVKMVAERS | 0.386
HMREVPHGEYEVKIEKLELVESKAGDPMVTVWFKVLAGDYKGSMIFMNQVITKGFQIHIMNEFLR | -0.308
HMREYEKAVDYVRRMISSGSLNVGDRLPTERELSLELDISRNSTREAMRMLENMGIIVSRHGSGNYISGN | -0.682
HMRFDADELQKAYDLFDADENTPFKTIKQAYYALARRHHPDKNGDQEYFKVINNAFQLIQEHRRRRDN | -0.437
HMRFGNHHVYRTLMVLSDQKRKGRKQIADAVGIGEGSMRTIIEYLRGLDMIDIRQTGVKITRHGNAFL | -0.115
HMRGAARRDRAVGERAVSKDTILDATRALLRKGSALEIRAIDIAEESGLSRQTVFQYYPVIRLIFFELSD | -0.00574
HMRGETSYANDIIKRLKQANLIVVEGTLYPLLNRLKKDGLLHYEWRESQQGPPRKYYGLTEEGEA | -0.273
HMRGFGEVGQLPSGRYRARYTGPDGGRHSAPITFVARIDAEGWLVDQERMISRGEWEPPARQ | -0.238
HMRGFGYVRRLPSKRYQASYAGPDLQRHVAPTTFTTKADAESWLGAERKVVESGSWRPPAVREAEARLS | 0.462
HMRGLIEPLSQRELEVLMLMARGQSNAHIADQLNISENTIKWHGRNIFGKLGVSNRTEAVITSQEMGMLAT | -0.727
HMRGRFGNAAPARNLGDHPQGGAINVKAGRYGPYVSWGKVNATLPKDSDPEKVTLEEAVALIAAKQSGQG | -0.111
HMRGVDRPLTLPRHWRRNAGRLVKVTLANGSAVTGRVLDPGEERVTLEVSGERHEVAYADVKKALVQVEF | -2.07
HMRHLSVPNRQVEGALDHIRSQGWLAEGMRVFASEDGSARLIPLGPGAPLEMLEPLAKFDVISHEGKPY | -0.149
HMRHSLAAALTELRRLAALDLGDFFRFEYVSHTDSLGGKQQAYTEGIRVSFGVYLGVNKKDRLNVDPVV | -3.42
HMRHTRQRQAVLDALVRSGQALSPQDLLGQAKSAVPSLNLSTVYRQIKGLQDAGQIVRVELPGQPPRFEM | -0.0693
HMRIAQYRQIENDLLEQINLGYYKKGDLIPTELELSATYHVSRVTVRKATDNLVAKGILQRVAGVGTFVSR | -3.14
HMRIATVTPIEEDQASDRVVAVYNDIKSTKQIDFIPNFWKVIAVNPDLLEQVWGQLKTLMHPEEVG | -0.996
HMRIEDTMDYINKIKEKLKNNGGVITSKEFTRSNIPTIYLTRMVETGELIRIDRGIYINSSG | -0.781
HMRIEYYDDEELDRYIGTPASGYREAAVEEFREILLTLDADDVPGWVRSLQLRGIEFPESLRPELYL | -0.568

Sequence | soluble fraction (log2)
HMRIFDDNMIFPTEAEISAALKRLVMDLPKVGFLQGHGERAVDNVGERAYSMFTHANNFRYALINQGFVT | -0.029
HMRIHKQLGDRIRNLRLSSGMNQEELAFKSGISAAHLGQIERGLKSPTISTIQKIAKALNVTLPILF | -0.631
HMRININNASARQIADALPGVGLKTARDIKDFQTTLSGERYTRLDQLHSIKRVDWDEIFKADLVRV | -0.0802
HMRISMRDQVYEIIKNRILSREYSLGEPINIVHLSKELGISNTPIREALSQLETERLITINSNQKYHVT | -0.0513
HMRKDEFLQTLRRALNGNVPPRVVEENVRYYDGYISDEVRKGRSEEEVIEEIGDPRLIARTIEDTT | 0.105
HMRKDRKVLMERGRHIFNDLLEKEGIVATNQLMTKLLASHHLRNRDELYLMLANDDISLSSKEIKDLS | -0.409
HMRKEDYLPIGSVINMDDRKFRVDSVDFDKDKVSLQDMALADARMPIFWEEPLTVVRELYEQQDE | 0.135
HMRKEPSYASDIITRLKEADLIVVEGTLYPLLTRLKKDGLLSYEWRESTQGPPRKYYALTLDGET | -0.47
HMRKIGDVLRLHAGGLSKRRIAVSLNIGRTAVGDYISRARRAGLGWPLPEDLSEEALERLLFPPP | -3.08
HMRKIVEGVLTKKEGKWYLLTDIETYKISDASAEYHKAELNDRASALIPAQNPKVPFASLEKVFN | -1.01
HMRKLHFVMSEIYEDHPWIGSKLQDVFLPKDIRVVLVERDSKQFMPNGQTLFELGDRLTLSALHYDPA | -2.8
HMRKLTDRQRQILDLIKTIIAETGAPPTRAEISTALGFKSANAAQEHLQALAQKGMIDLVSGASRGIRLRG | -0.99
HMRKMELTEAAEKLIEEPDVVSAYRNMQQIFQQWREIGPVPREQRDEVWSHFKDLMTQVNRRHQAHFEN | 0.113
HMRKPLDQSWVPDDDAMKILTNSGIEKEFIKNEIPEFILYWSDKGEISDSWNTKFISQIRRQWAKNQ | -0.0241
HMRKSAVSSTLTSIEGIGATRAKALLKHFKTVAAVSEADLKELEDAPGMTRPSALRVYEYFHGK | -0.342
HMRKSLGEIVFDRMERAIKSGAYSPDERLPTELDLAAEFEVSRPVIRDALKRLRERGLIYSRQGAGSFVRA | -0.813
HMRKTIQDFLSSNKVDIAKLLTLALEKTKEDLYKNLSYNLTNKELEKLKLLIKKREQGIPFAYLS | -0.348
HMRLADHVVEKLLALVQERGLQPGQKLPAERQLAEVLGVSRTSVREAIQKLVSQGVLSARRGDGTYVQS | -0.302
HMRLANGIGTVYKLSGNRRNPYIVRKTTGWEIDEESGKAKQKYITIGYAPTRAKGLEMLMDYNKNP | -0.895
HMRLDHIFSVVERLKGVSLGAGDRLEVQKYEDLLTVYKSKNALSSEEAQTLNDILASLLKMMAKYD | -1.05
HMRLDSELVSARLHRFMGTNRKPDGEIVEKIAAILEGHPIETLDAFLQSLNGRKIKSYGFFPTVLRREIAN | -0.319
HMRLEEVSVPQRLLAAIAEEREVQIGIVDGRGGTRVLRVEPLALEGGRLRARDVESGEEFTVLIHRVLL | -1.19
HMRLLAESIARGLDPEGSGGLWAKEAGAEALKLMETLAAEAPHGGSFTAAAYRDLFESLVHQGEVREA | -0.00417
HMRLLGEPLAGRLKKDVPVVTGRSTESKAIAQFFELRWSHLPDPEARTISVASGRIDFMDVGATRFSLR | 0.0725
